The target in one assay is T1, MUC1-SEA-His protein (UniProt P15941 1039-1148, limits assumed).
T1 construct: domain: SEA; Recombinant antigen used for ELISA coating and as Biacore analyte; also called MUC-SEA-His; antigen protein; not shown: His tag
T1 sequence (looked up): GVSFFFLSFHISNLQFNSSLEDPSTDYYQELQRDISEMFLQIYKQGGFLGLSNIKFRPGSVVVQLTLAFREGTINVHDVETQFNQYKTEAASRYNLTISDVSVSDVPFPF
Put plainly: SPR Biacore T200, antibody captured, antigen as analyte. As to the method:
Antibody affinity was determined using a Surface Plasmon Resonance (SPR) biosensor, Biacore T200 (GE Healthcare). Antibody was immobilized on the sensor chip through Fc capture method. Antigen protein was used as the analyte. The data of dissociation (kd) and association (ka) rate constants were obtained using Biacore T200 evaluation software. The apparent equilibrium dissociation constants (KD) were calculated from the ratio of kd over ka. For affinity ranking, twenty-five humanized antibodies plus chimericantibody were injected and captured on sensor chip individually. The antibodies were ranked based on their dissociation rates (kd).
A general note: SPR reads the build-up and loss of mass on a sensor chip optically.

For assay [1], the target named is T2, MUC1 on HCT116/MUC1 cells (UniProt P15941 24-1255, limits assumed).
T2 construct: whole, on cells; also called MUC1 overexpressed cell line
Put plainly: FACS titration on HCT116/MUC1 cells. As to the method:
(§1) To assess cell binding, 2×10⁵ HCT116/MUC1 cells per well were washed with PBS twice and incubated in 200 μl of serial dilutions of chimeric or humanized antibodies for 1 hour at room temperature. After washing 3 times with PBS, secondary antibody (2 μg/ml Alexa Flour®488 goat anti-human IgG) was added to cells and incubated for 30 minutes at room temperature. After washing with PBS, cells were analyzed by using FACSCalibur (BD Bioscience, San Jose, Calif.) and Flowjo software.

In assay [2] the target is T2, MUC1 on HCT116/MUC1 cells. Nature of the assay: FACS titration, HCT116/MUC1 cells, antibody at 125 nM. As to the method:
as §1

For assay [3], the target named is T2, MUC1 on HCT116/MUC1 cells. Put plainly: FACS titration, HCT116/MUC1 cells, antibody at 250 nM. As to the method: as §1
Assay [4] has as its target T2, MUC1 on HCT116/MUC1 cells. Nature of the assay: FACS titration, HCT116/MUC1 cells, antibody at 500 nM. Here is the method: as §1
For assay [5], the target named is T2, MUC1 on HCT116/MUC1 cells. Put plainly: FACS titration, HCT116/MUC1 cells, antibody at 62.5 nM. As to the method: as §1
Assay [6] concerns the target T2, MUC1 on HCT116/MUC1 cells. Put plainly: FACS titration, HCT116/MUC1 cells, antibody at 0.244 nM. Here is the method: as §1
For assay [7], the target named is T2, MUC1 on HCT116/MUC1 cells. Nature of the assay: FACS titration, HCT116/MUC1 cells, antibody at 0.488 nM. As to the method: as §1
The target of assay [8] is T2, MUC1 on HCT116/MUC1 cells. Nature of the assay: FACS titration, HCT116/MUC1 cells, antibody at 0.977 nM. Here is the method: as §1
The target of assay [9] is T2, MUC1 on HCT116/MUC1 cells. Put plainly: FACS titration, HCT116/MUC1 cells, antibody at 1.953 nM. Here is the method:
as §1

Assay [10] deals with T2, MUC1 on HCT116/MUC1 cells. Nature of the assay: FACS titration, HCT116/MUC1 cells, antibody at 3.906 nM. Here is the method: as §1
The target in assay [11] is T2, MUC1 on HCT116/MUC1 cells. Nature of the assay: FACS titration, HCT116/MUC1 cells, antibody at 31.25 nM. Here is the method:
as §1

Assay [12] addresses T2, MUC1 on HCT116/MUC1 cells. Nature of the assay: FACS titration, HCT116/MUC1 cells, antibody at 7.812 nM. Here is the method:
as §1

Assay [13] deals with T2, MUC1 on HCT116/MUC1 cells. Nature of the assay: FACS titration, HCT116/MUC1 cells, antibody at 15.625 nM. Here is the method: as §1

T2 sequence (P15941 24-1255 limits assumed): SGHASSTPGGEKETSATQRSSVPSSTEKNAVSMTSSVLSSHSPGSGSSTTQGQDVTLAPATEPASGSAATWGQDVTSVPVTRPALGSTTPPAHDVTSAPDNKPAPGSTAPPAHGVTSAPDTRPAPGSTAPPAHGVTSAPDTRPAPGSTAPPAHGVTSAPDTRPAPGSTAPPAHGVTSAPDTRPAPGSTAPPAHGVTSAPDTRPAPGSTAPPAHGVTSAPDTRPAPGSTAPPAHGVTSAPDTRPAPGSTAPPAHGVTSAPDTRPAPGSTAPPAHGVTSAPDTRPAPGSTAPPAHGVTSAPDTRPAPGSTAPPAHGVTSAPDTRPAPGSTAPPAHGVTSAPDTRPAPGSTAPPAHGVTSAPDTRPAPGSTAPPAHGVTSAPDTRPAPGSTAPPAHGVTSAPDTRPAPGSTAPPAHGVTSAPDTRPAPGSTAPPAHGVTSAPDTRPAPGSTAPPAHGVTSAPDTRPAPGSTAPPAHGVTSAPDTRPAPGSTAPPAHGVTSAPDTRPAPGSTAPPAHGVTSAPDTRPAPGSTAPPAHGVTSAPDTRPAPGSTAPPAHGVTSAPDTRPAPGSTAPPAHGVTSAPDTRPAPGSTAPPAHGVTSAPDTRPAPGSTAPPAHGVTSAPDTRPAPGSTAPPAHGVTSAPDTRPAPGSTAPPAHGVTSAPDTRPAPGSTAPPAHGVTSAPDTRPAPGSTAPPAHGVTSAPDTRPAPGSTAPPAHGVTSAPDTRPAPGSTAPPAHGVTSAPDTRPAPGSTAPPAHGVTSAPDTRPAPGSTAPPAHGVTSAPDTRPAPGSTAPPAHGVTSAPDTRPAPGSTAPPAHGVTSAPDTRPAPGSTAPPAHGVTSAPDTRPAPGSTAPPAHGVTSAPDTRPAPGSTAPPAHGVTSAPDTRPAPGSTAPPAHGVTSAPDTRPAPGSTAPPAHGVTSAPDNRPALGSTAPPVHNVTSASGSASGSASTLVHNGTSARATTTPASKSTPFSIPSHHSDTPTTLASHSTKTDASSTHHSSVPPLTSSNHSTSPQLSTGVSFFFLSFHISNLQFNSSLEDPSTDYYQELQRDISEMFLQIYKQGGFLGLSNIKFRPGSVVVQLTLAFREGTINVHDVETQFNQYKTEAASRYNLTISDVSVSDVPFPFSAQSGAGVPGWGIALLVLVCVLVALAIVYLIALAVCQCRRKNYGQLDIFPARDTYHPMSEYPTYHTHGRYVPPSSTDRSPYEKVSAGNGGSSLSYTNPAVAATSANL

B1: VH2 + VL5 (antibody, V domains shown)
VH: QVQLVQSGAEVKKPGASVKVSCKASGYAFSNFWMNWVRQAPGQGLEWMGQIYPGDGDTNYNGKFKGRVTMTRDTSTSTVYMELSSLRSEDTAVYYCARSYYRSAWFAYWGQGTLVTVSS
VL: DIVMTQSPSLLSASTGDRVTISCRASQSIGTSIHWYQQKPGKAPELLIYYASESISGVPSRFSGSGSGTDFTLTISCLQSEDFATYYCQQSNNWPLTFGQGTKVEIK
notes: Humanized IgG expressed in HEK293; also called humanized antibody VH2+VL5
Take B1: in the assay with MUC1-SEA-His protein, the koff stood at 0.0193 s⁻¹.

B2: VH4 + VL5 (antibody, V domains shown)
VH: QVQLVQSGAEVKKPGATVKISCKVSGYAFSNFWMNWVQQAPGKGLEWMGQIYPGDGDTNYNGKFKGRVTITADTSTDTAYMELSSLRSEDTAVYYCARSYYRSAWFAYWGQGTLVTVSR
VL: DIVMTQSPSLLSASTGDRVTISCRASQSIGTSIHWYQQKPGKAPELLIYYASESISGVPSRFSGSGSGTDFTLTISCLQSEDFATYYCQQSNNWPLTFGQGTKVEIK
notes: Humanized IgG expressed in HEK293; also called humanized antibody VH4+VL5
Molecule B2 showed a koff with MUC1-SEA-His protein of 0.0578 s⁻¹. This koff lies about 3-fold higher than the previous one.

B3: VH1 + VL5 (antibody, V domains shown)
VH: QVQLVQSGAEVKKPGSSVKVSCKASGYAFSNFWMNWVRQAPGQGLEWMGQIYPGDGDTNYNGKFKGRVTITADKSTSTAYMELSSLRSEDTAVYYCARSYYRSAWFAYWGQGTLVTVSS
VL: DIVMTQSPSLLSASTGDRVTISCRASQSIGTSIHWYQQKPGKAPELLIYYASESISGVPSRFSGSGSGTDFTLTISCLQSEDFATYYCQQSNNWPLTFGQGTKVEIK
notes: Humanized IgG expressed in HEK293; also called humanized antibody VH1+VL5
Molecule B3 registered a koff with MUC1-SEA-His protein of 0.0302 s⁻¹. This koff is about 1.9-fold lower than that of the molecule before.

B4: VH3 + VL5 (antibody, V domains shown)
VH: QVQLVQSGAEVKKPGASVKVSCKASGYAFSNFWMNWVRQAPGQGLEWMGQIYPGDGDTNYNGKFKGRVTMTRDTSISTAYMELSRLRSDDTAVYYCARSYYRSAWFAYWGQGTLVTVSS
VL: DIVMTQSPSLLSASTGDRVTISCRASQSIGTSIHWYQQKPGKAPELLIYYASESISGVPSRFSGSGSGTDFTLTISCLQSEDFATYYCQQSNNWPLTFGQGTKVEIK
notes: Humanized IgG expressed in HEK293; also called humanized antibody VH3+VL5
B4 registered a koff with MUC1-SEA-His protein of 0.023 s⁻¹.

B5: VH4 + VL4 (antibody, V domains shown)
VH: QVQLVQSGAEVKKPGATVKISCKVSGYAFSNFWMNWVQQAPGKGLEWMGQIYPGDGDTNYNGKFKGRVTITADTSTDTAYMELSSLRSEDTAVYYCARSYYRSAWFAYWGQGTLVTVSR
VL: AIQLTQSPSSLSASVGDRVTITCRASQSIGTSIHWYQQKPGKAPKLLIYYASESISGVPSRFSGSGSGTDFTLTISSLQPEDFATYYCQQSNNWPLTFGGGTKVEIK
notes: Humanized IgG expressed in HEK293; also called humanized antibody VH4+VL4
In the case of B5, the koff with MUC1-SEA-His protein worked out at 0.0243 s⁻¹.

B6: VH5 + VL3 (antibody, V domains shown)
VH: EVQLVQSGAEVKKPGESLKISCKGSGYAFSNFWMNWVRQMPGKGLEWMGQIYPGDGDTNYNGKFKGQVTISADKSISTAYLQWSSLKASDTAMYYCARSYYRSAWFAYWGQGTLVTVSL
VL: EIVLTQSPATLSLSPGERATLSCRASQSIGTSIHWYQQKPGQAPRLLIYYASESISGIPARFSGSGSGTDFTLTISSLEPEDFAVYYCQQSNNWPLTFGGGTKVEIK
notes: Humanized IgG expressed in HEK293; also called humanized antibody VH5+VL3
Molecule B6 displayed an EC50 in [1] of 21.9 nM. For the same molecule, the geometric mean in assay [2] was found to be 126; in assay [3], 167; in assay [4], 170; in [5] it was 141; in assay [6] it was 2.82; in assay [7], 3.27. Also, the geometric mean in assay [8] was 4.13; in [9], 8.05; in assay [10], 15.5; in [11] it was 110; in assay [12], 31; in assay [13], 61.5. Moreover, in the assay with MUC1-SEA-His protein, the koff was found to be 0.0164 s⁻¹.

B7: VH4 + VL2 (antibody, V domains shown)
VH: QVQLVQSGAEVKKPGATVKISCKVSGYAFSNFWMNWVQQAPGKGLEWMGQIYPGDGDTNYNGKFKGRVTITADTSTDTAYMELSSLRSEDTAVYYCARSYYRSAWFAYWGQGTLVTVSR
VL: EIVMTQSPATLSVSPGERATLSCRASQSIGTSIHWYQQKPGQAPRLLIYYASESISGIPARFSGSGSGTEFTLTISSLQSEDFAVYYCQQSNNWPLTFGGGTKVEIK
notes: Humanized IgG expressed in HEK293; also called humanized antibody VH4+VL2
For the molecule B7, in the assay with MUC1-SEA-His protein, the dissociation rate constant (koff) amounted to 0.0315 s⁻¹.

B8: VH3 + VL2 (antibody, V domains shown)
VH: QVQLVQSGAEVKKPGASVKVSCKASGYAFSNFWMNWVRQAPGQGLEWMGQIYPGDGDTNYNGKFKGRVTMTRDTSISTAYMELSRLRSDDTAVYYCARSYYRSAWFAYWGQGTLVTVSS
VL: EIVMTQSPATLSVSPGERATLSCRASQSIGTSIHWYQQKPGQAPRLLIYYASESISGIPARFSGSGSGTEFTLTISSLQSEDFAVYYCQQSNNWPLTFGGGTKVEIK
notes: Humanized IgG expressed in HEK293; also called humanized antibody VH3+VL2
In the assay with MUC1-SEA-His protein, B8 registered a koff of 0.0195 s⁻¹.

B9: VH5 + VL5 (antibody, V domains shown)
VH: EVQLVQSGAEVKKPGESLKISCKGSGYAFSNFWMNWVRQMPGKGLEWMGQIYPGDGDTNYNGKFKGQVTISADKSISTAYLQWSSLKASDTAMYYCARSYYRSAWFAYWGQGTLVTVSL
VL: DIVMTQSPSLLSASTGDRVTISCRASQSIGTSIHWYQQKPGKAPELLIYYASESISGVPSRFSGSGSGTDFTLTISCLQSEDFATYYCQQSNNWPLTFGQGTKVEIK
notes: Humanized IgG expressed in HEK293; also called humanized antibody VH5+VL5
In the case of B9, in the assay with MUC1-SEA-His protein, the dissociation rate constant (koff) is 0.0207 s⁻¹.

B10: VH1 + VL2 (antibody, V domains shown)
VH: QVQLVQSGAEVKKPGSSVKVSCKASGYAFSNFWMNWVRQAPGQGLEWMGQIYPGDGDTNYNGKFKGRVTITADKSTSTAYMELSSLRSEDTAVYYCARSYYRSAWFAYWGQGTLVTVSS
VL: EIVMTQSPATLSVSPGERATLSCRASQSIGTSIHWYQQKPGQAPRLLIYYASESISGIPARFSGSGSGTEFTLTISSLQSEDFAVYYCQQSNNWPLTFGGGTKVEIK
notes: Humanized IgG expressed in HEK293; also called humanized antibody VH1+VL2
For the molecule B10, in the assay with MUC1-SEA-His protein, the koff amounted to 0.0294 s⁻¹.

B11: VH4 + VL3 (antibody, V domains shown)
VH: QVQLVQSGAEVKKPGATVKISCKVSGYAFSNFWMNWVQQAPGKGLEWMGQIYPGDGDTNYNGKFKGRVTITADTSTDTAYMELSSLRSEDTAVYYCARSYYRSAWFAYWGQGTLVTVSR
VL: EIVLTQSPATLSLSPGERATLSCRASQSIGTSIHWYQQKPGQAPRLLIYYASESISGIPARFSGSGSGTDFTLTISSLEPEDFAVYYCQQSNNWPLTFGGGTKVEIK
notes: Humanized IgG expressed in HEK293; also called humanized antibody VH4+VL3
Take B11: in the assay with MUC1-SEA-His protein, the koff came out at 0.0237 s⁻¹. The koff values of the last two molecules are within 1.5-fold of each other.

B12: VH5 + VL2 (antibody, V domains shown)
VH: EVQLVQSGAEVKKPGESLKISCKGSGYAFSNFWMNWVRQMPGKGLEWMGQIYPGDGDTNYNGKFKGQVTISADKSISTAYLQWSSLKASDTAMYYCARSYYRSAWFAYWGQGTLVTVSL
VL: EIVMTQSPATLSVSPGERATLSCRASQSIGTSIHWYQQKPGQAPRLLIYYASESISGIPARFSGSGSGTEFTLTISSLQSEDFAVYYCQQSNNWPLTFGGGTKVEIK
notes: Humanized IgG expressed in HEK293; also called humanized antibody VH5+VL2
B12 registered a koff with MUC1-SEA-His protein of 0.0228 s⁻¹.

B13: VH1 + VL3 (antibody, V domains shown)
VH: QVQLVQSGAEVKKPGSSVKVSCKASGYAFSNFWMNWVRQAPGQGLEWMGQIYPGDGDTNYNGKFKGRVTITADKSTSTAYMELSSLRSEDTAVYYCARSYYRSAWFAYWGQGTLVTVSS
VL: EIVLTQSPATLSLSPGERATLSCRASQSIGTSIHWYQQKPGQAPRLLIYYASESISGIPARFSGSGSGTDFTLTISSLEPEDFAVYYCQQSNNWPLTFGGGTKVEIK
notes: Humanized IgG expressed in HEK293; also called humanized antibody VH1+VL3
With B13, the koff with MUC1-SEA-His protein was determined as 0.0225 s⁻¹.

B14: VH2 + VL2 (antibody, V domains shown)
VH: QVQLVQSGAEVKKPGASVKVSCKASGYAFSNFWMNWVRQAPGQGLEWMGQIYPGDGDTNYNGKFKGRVTMTRDTSTSTVYMELSSLRSEDTAVYYCARSYYRSAWFAYWGQGTLVTVSS
VL: EIVMTQSPATLSVSPGERATLSCRASQSIGTSIHWYQQKPGQAPRLLIYYASESISGIPARFSGSGSGTEFTLTISSLQSEDFAVYYCQQSNNWPLTFGGGTKVEIK
notes: Humanized IgG expressed in HEK293; also called humanized antibody VH2+VL2
B14 registered a koff with MUC1-SEA-His protein of 0.0166 s⁻¹. This koff and that of the molecule before are within 1.5-fold of each other.

One may read the koff as the rate constant with which the complex falls apart. What is called EC50 is the concentration needed to bring the measured effect to its halfway point. A low value points to a more potent agent.
